Assay results from a protein production outcome set (Wang et al. 2014).

Test: label from the status in PepcDB records

| Sequence | protein production |
| --- | --- |
| MAAADAEAVPARGEPQQDCCVKTELLGEETPMAADEGSAEKQAGEAHMAADGETNGSCENSDASSHANAAKHTQDSARVNPQDGTNTLTRIAENGVSERDSEAAKQNHVTADDFVQTSVIGSNGYILNKPALQAQPLRTTSTLASSLPGHAAKTLPGGAGKGRTPSAFPQTPAAPPATLGEGSADTEDRKLPAPGADVKVHRARKTMPKSVVGLHAASKDPREVREARDHKEPKEEINKNISDFGRQQLLPPFPSLHQSLPQNQCYMATTKSQTACLPFVLAAAVSRKKKRRMGTYSLVPKKKTKVLKQRTVIEMFKSITHSTVGSKGEKDLGASSLHVNGESLEMDSDEDDSEELEEDDGHGAEQAAAFPTEDSRTSKESMSEADRAQKMDGESEEEQESVDTGEEEEGGDESDLSSESSIKKKFLKRKGKTDSPWIKPARKRRRRSRKKPSGALGSESYKSSAGSAEQTAPGDSTGYMEVSLDSLDLRVKGILSSQAEGLANGPDVLETDGLQEVPLCSCRMETPKSREITTLANNQCMATESVDHELGRCTNSVVKYELMRPSNKAPLLVLCEDHRGRMVKHQCCPGCGYFCTAGNFMECQPESSISHRFHKDCASRVNNASYCPHCGEESSKAKEVTIAKADTTSTVTPVPGQEKGSALEGRADTTTGSAAGPPLSEDDKLQGAASHVPEGFDPTGPAGLGRPTPGLSQGPGKETLESALIALDSEKPKKLRFHPKQLYFSARQGELQKVLLMLVDGIDPNFKMEHQNKRSPLHAAAEAGHVDICHMLVQAGANIDTCSEDQRTPLMEAAENNHLEAVKYLIKAGALVDPKDAEGSTCLHLAAKKGHYEVVQYLLSNGQMDVNCQDDGGWTPMIWATEYKHVDLVKLLLSKGSDINIRDNEENICLHWAAFSGCVDIAEILLAAKCDLHAVNIHGDSPLHIAARENRYDCVVLFLSRDSDVTLKNKEGETPLQCASLNSQVWSALQMSKALQDSAPDRPSPVERIVSRDIARGYERIPIPCVNAVDSEPCPSNYKYVSQNCVTSPMNIDRNITHLQYCVCIDDCSSSNCMCGQLSMRCWYDKDGRLLPEFNMAEPPLIFECNHACSCWRNCRNRVVQNGLRARLQLYRTRDMGWGVRSLQDIPPGTFVCEYVGELISDSEADVREEDSYLFDLDNKDGEVYCIDARFYGNVSRFINHHCEPNLVPVRVFMAHQDLRFPRIAFFSTRLIEAGEQLGFDYGERFWDIKGKLFSCRCGSPKCRHSSAALAQRQASAAQEAQEDGLPDTSSAAAADPL | failed |
| MAAAFASLPTFSVVNSSRFPRRRIGFSCSKKPLEVRCSSGNTRYTKQRGAFTSLKECAISLALSVGLMVSVPSIALPPNAHAVANPVIPDVSVLISGPPIKDPEALLRYALPIDNKAIREVQKPLEDITDSLKIAGVKALDSVERNVRQASRTLQQGKSIIVAGFAESKKDHGNEMIEKLEAGMQDMLKIVEDRKRDAVAPKQKEILKYVGGIEEDMVDGFPYEVPEEYRNMPLLKGRASVDMKVKIKDNPNIEDCVFRIVLDGYNAPVTAGNFVDLVERHFYDGMEIQRSDGFVVQTGDPEGPAEGFIDPSTEKTRTVPLEIMVTGEKTPFYGSTLEELGLYKAQVVIPFNAFGTMAMAREEFENDSGSSQVFWLLKESELTPSNSNILDGRYAVFGYVTDNEDFLADLKVGDVIESIQVVSGLENLANPSYKIAG | failed |
| MAAARDQLQMAADVARLGIWRWNLADDSLQWNERMCEMYGQPLALRDGGLVYEHWRSRLHPEDLERTEASLRAAVEGRGNYDVIFRVVLPDGGIRFIQAGAQVERDADGNPLQVTGINIDITSDQQLQARLREAKEQADAASAAKSSFLANMSHEIRTPMNAVLGML | failed |
| MAADESYPSVKERAFFQGLPFDYAVVFDNALIDRLFSRLRQERALVEDGLLARPDHRPWRLGALITEADTLDRRLSEQIRCLSGQSLPVASIALVTATTEAREAVSLWASVTCPPNVVVTPDPRAWMAEADLDLVVVFAPGALAHPGLFAALGRALQRDGADFAVWNHLLVRRRAEAPGQDITYLRCPDPTRQPVALAHMEAAGPAWAATPRLFETIKGDLGKALIGMARHPLSIALLRGKPKVVRLNEFLGACRVDSLGTPPWPRQSALVEAYGAALEDETFRLEIDPAHPTQPIRLTPRRRAHSIDIVINFRDKPELTLAAMGSIYAQTTTARVSLFLIDNQSTPAARAAIDAEAARAPAGIAVRVLSYDRPFNHSAQTNLGAAAGNGEALVFMSNDCALVDPGALDEMAAWALAPGVGTVGVRLETAEGRLACSGICALYPDHDFHPIVAEGFDQLGAGLNRETFANTFACACLARAVFRQAGPLDAIGFPIGLNDVDYCLRLRERGLRHLYLGAFLARHQALGSRPASDDGAQSAFLRQTYGHLLFDKEYMLEYDFLRQFTAAKLRQDIRSQRDKTTTVLEHHHHHH | failed |
| MAAEIHSRPQSSRPVLLSKIEGHQDAVTAALLIPKEDGVITASQDNGAVMEFHVSEDFNKMNFIKTYPAHQNRVSAIIFSLATEWVISTGHDKCVSWMCTRSGNMLGRHFFTSWASCLQYDFDTQYAFVGDYSGQITLLKLEQNTCSVITTLKGHEGSVACLWWDPIQRLLFSGASDNSIIMWDIGGRKGRTLLLQGHHDKVQSLCYLQLTRQLVSCSSDGGIAVWNMDVSREEAPQWLESDSCQKCEQPFFWNIKQMWDTKTLGLRQHHCRKCGQAVCGKCSSKRSSYPVMGFEFQVRVCDSCYDSIKDEDRTSLATFHEGKHNISHMSMDIARGLMVTCGTDRIVKIWDMTPVVGCSLATGFSPH | failed |
| MAAIPALDPEAEPSMDVILVGSSELSSSVSPGTGRDLIAYEVKANQRNIEDICICCGSLQVHTQHPLFEGGICAPCKDKFLDALFLYDDDGYQSYCSICCSGETLLICGNPDCTRCYCFECVDSLVGPGTSGKVHAMSNWVCYLCLPSSRSGLLQRRRKWRSQLKAFYDRESENPLEMFETVPVWRRQPVRVLSLFEDIKKELTSLGFLESGSDPGQLKHVVDVTDTVRKDVEEWGPFDLVYGATPPLGHTCDRPPSWYLFQFHRLLQYARPKPGSPRPFFWMFVDNLVLNKEDLDVASRFLEMEPVTIPDVHGGSLQNAVRVWSNIPAIRSSRHWALVSEEELSLLAQNKQSSKLAAKWPTKLVKNCFLPLREYFKYFSTELTSSL | failed |
| MAAITTGVVLLRWQLLSAVLMFLASTLNIRFRKSDYIGLAVISSGLGVVSACWFATGLLGITMMDLAAIWHNIEAVMVETMSQTPPEWPMVLT | failed |
| MAAKLEKTTNSFEVITREWYAKFSPTWNESHGERIIRRFERDIFPWIGSKPISEIAAPELLATVRRIESRGAVETAHRALGNCGQVFRYAIATARATRDISADLRGALPPVKGEHLEHHHHHH | not failed |
| MAAKQGESDPERKETRQKVDDDRKHEIEAAIVRIMKSRKKMQHNVLVAEVTQQLKARFLPSPVVIKKRIEGLIEREYLARTPEDRKVYTYVA | not failed |
| MAAPEAEVLSSAAVPDLEWYEKSEETHASQIELLETSSTQEPLNASEAFCPRDCMVPVVFPGPVSQEGCCQFTCELLKHIMYQRQQLPLPYEQLKHFYRKPSPQAEEMLKKKPRATTEVSSRKCQQALAELESVLSHLEDFFARTLVPRVLILLGGNALSPKEFYELDLSLLAPYSVDQSLSTAACLRRLFRAIFMADAFSELQAPPLMGTVVMAQGHRNCGEDWFRPKLNYRVPSRGHKLTVTLSCGRPSIRTTAWEDYIWFQAPVTFKGFRE | not failed |
| MAAQVEIEDQESVTNLDNGEIINPISDNAPNFSGDATILLREATFEHNLIKNCFLSGMGSFATETTIVTVRKILTQRLITTKAKFAVFKLFTEAMKRKNNGYANIRYGWYSGSKEEIDRVITYGFSNREIKKVENDVGSHGVGIHLVHHRYSLAAALVGEGDEEGIKNILLCRVILGKPEQIVTGSKQSYPSSNQFDSGVDNLENPRKYVIWSCNMNSYILPTYIVSFKSHLLRGLIGRARSPCVSFSVLMSILSKSLDAARMNLILTSYDDFRKRKLRREQLVRKIREVVGDNLLFKILKNQRR | not failed |
| MAARNAFYAQSGGVTAVINASACGVLETARQYPDRIGTVYAGRNGIVGALTEDLIDTGQESAEAIAALRHTPSGAFGSCRYKLKGLEENRAQYERLIEVFRAHDIGYFFYNGGGDSADTCLKVSQLSEKLGYPLQAVHIPKTVDNDLPITDCCPGFGSVAKYIAVSVREASFDVRSMAATSTCIFVLEVMGRHAGWIAAAGGLASDERHELALVILFPEQVFDPERFLRAVDEKVRSHGYCSVVVSEGIRGADGRFVAESGSRDVFGHARLGGVAPVIADLIKERLGYKYHWAVADYLQRAARHIASRTDVEQAYAVGKAGVEMALKGLSAVMPAIVRTSDSPYRWEITAASLAEVANVEKKMPLEFISADGFGITEACRRYLRPLIEGEDYPPYAGGLPDYVTLCNVAVPKKLAASFSV | failed |
| MAASAAATAAASAATAASAASGSPGSGEGSAGGEKRPAASSAAAASAAASSPAGGGGEAQELLEHCGVCRERLRPERDPRLLPCLHSACSACLGPATPAAANNSGDGGSAGDGAMVDCPVCKQQCYSKDIVENYFMRDSGSKASSDSQDANQCCTSCEDNAPATSYCVECSEPLCETCVEAHQRVKYTKDHTVRSTGPAKTRDGERTVYCNVHKHEPLVLFCESCDTLTCRDCQLNAHKDHQYQFLEDAVRNQRKLLASLVKRLGDKHATLQKNTKEVRSSIRQVSDVQKRVQVDVKMAILQIMKELNKRGRVLVNDAQKVTEGQQERLERQHWTMTKIQKHQEHILRFASWALESDNNTALLLSKKLIYFQLHRALKMIVDPVEPHGEMKFQWDLNAWTKSAEAFGKIVAERPGTNSTGPGPMAPPRAPGPLSKQGSGSSQPMEVQEGYGFGSDDPYSSAEPHVSGMKRSRSGEGEVSGLLRKVPRVSLERLDLDLTSDSQPPVFKVFPGSTTEDYNLIVIERGAAAAAAGQAGTVPPGAPGAPPLPGMAIVKEEETEAAIGAPPAAPEGPETKPVLMPLTEGPGAEGPRLASPSGSTSSGLEVVAPEVTSAPVSGPGILDDSATICRVCQKPGDLVMCNQCEFCFHLDCHLPALQDVPGEEWSCSLCHVLPDLKEEDGSLSLDGADSTGVVAKLSPANQRKCERVLLALFCHEPCRPLHQLATDSTFSMEQPGGTLDLTLIRARLQEKLSPPYSSPQEFAQDVGRMFKQFNKLTEDKADVQSIIGLQRFFETRMNDAFGDTKFSAVLVEPPPLNLPSAGLSSQELSGPGDGP | not failed |
| MAASLSEGVPETEDRKRPQFGNRFLSDPARVFHHNAWDNVKWSEEQAAAAERKVQENSSQLVCPEKQADYEVNAHKYWDDFYKVHENGFFKDRHWLFTEFPELAPSHDHLVNLHLEKQKNEVSKPRSSEDGPGLAAEQHKRPCTSHGCETRVPPVEEPVTQKLTHLEICADDFPGSSATYRILEVGCGVGNTVFPILQTNNNPDLFVYCCDFSATAIELVKTNSEYDPSRCFAFVHDLCDEDQSYPMPKDSLDVIVLIFVLSAIVPDKMQKAISKLSRLLKPGGVMLLRDYGRYDMAQLRFKKGQCLSGNFYVRGDGTRVYFFTQDELDTLFTAAGLEKVQNVVDRRLQVNRGKQLTMYRVWIQCKYSKPLVPSASQHVPTPHTTXVLRIWGFC | failed |
| MAATAREDGASGQERGQRGCEHYDRGCLLKAPCCDKLYTCRLCHDNNEDHQLDRFKVKEVQCINCEKIQHAQQTCEECSTLFGEYYCDICHLFDKDKKQYHCENCGICRIGPKEDFFHCLKCNLCLAMNLQGRHKCIENVSRQNCPICLEDIHTSRVVAHVLPCGHLLHRTCYEEMLKEGYRCPLCMHSALDMTRYWRQLDDEVAQTPMPSEYQNMTVDILCNDCNGRSTVQFHILGMKCKICESYNTAQAGGRRISLDQQ | failed |
| MAATASPQPLATEDADAENSSFYYYDYLDEVAFMLCRKDAVVSFGKVFLPVFYSLIFVLGLSGNLLLLMVLLRYVPRRRMVEIYLLNLAISNLLFLVTLPFWGISVAWHWVFGSFLCKMVSTLYTINFYSGIFFISCMSLDKYLEIVHAQPYHRLRTRAKNLLLATIVWAVSLAVSIPDMVFVQTHENPKGVWNYHADFGGHGTIWKLFLRFQQNLLGFLLPLLGMIFFYSRIGCVLVRLRPAGQGRALKIAAALVVAFFVLWFPYNLTLFLHTLLDLQVFGNCEVSQHLDYALQVTESIAFLHCCFSPILYAFSSHRFRQYLKAFLAAVLGWHLAPGTAQASLSSCSESSILTALEEMTGMNDLGERQSENYPNKEDVGNKSA | failed |
